# In the supplement of paper PMC10567573:
# B1: EPB41L3 (parent)
# chain: SDYISEFRFAPNHTKELEDKVIEL
# B2: FCHO1 (parent)
# chain: FSDPSQSDPETKDFWLNMAALTEA
# Variants of: B1
# Test: protein stability index of a GFP-peptide fusion (GPS, HEK-293T) (PSI 1-6); higher = more stable
# Conditions: c terminus: a fixed tail appended
# 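Also: lentivirally expressed fusions sorted by FACS into six bins by GFP to DsRed ratio, PSI derived from sequencing read proportions per bin multiplied by bin number.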
row,Variant,protein stability index
1,LDYISEFRFAPNHTKELEDKVIEL [S1L],2.19
2,VDYISEFRFAPNHTKELEDKVIEL [S1V],1.74
3,NDYISEFRFAPNHTKELEDKVIEL [S1N],1.94
4,FDYISEFRFAPNHTKELEDKVIEL [S1F],1.96
5,ADYISEFRFAPNHTKELEDKVIEL [S1A],2.38
6,HDYISEFRFAPNHTKELEDKVIEL [S1H],2.1
7,KDYISEFRFAPNHTKELEDKVIEL [S1K],1.72
8,IDYISEFRFAPNHTKELEDKVIEL [S1I],1.71
9,GDYISEFRFAPNHTKELEDKVIEL [S1G],2.12
10,EDYISEFRFAPNHTKELEDKVIEL [S1E],2.15
11,CDYISEFRFAPNHTKELEDKVIEL [S1C],1.75
12,TDYISEFRFAPNHTKELEDKVIEL [S1T],2.01
13,PDYISEFRFAPNHTKELEDKVIEL [S1P],2.71
14,RDYISEFRFAPNHTKELEDKVIEL [S1R],1.85
15,YDYISEFRFAPNHTKELEDKVIEL [S1Y],2.38
16,WDYISEFRFAPNHTKELEDKVIEL [S1W],1.76
17,QDYISEFRFAPNHTKELEDKVIEL [S1Q],2.45
18,MDYISEFRFAPNHTKELEDKVIEL [S1M],1.92
19,DDYISEFRFAPNHTKELEDKVIEL [S1D],2.25
20,SDFISEFRFAPNHTKELEDKVIEL [Y3F],1.91
21,SDEISEFRFAPNHTKELEDKVIEL [Y3E],4.43
22,SDDISEFRFAPNHTKELEDKVIEL [Y3D],4.03
23,SDHISEFRFAPNHTKELEDKVIEL [Y3H],2.91

row,Variant,protein stability index
1,SDCISEFRFAPNHTKELEDKVIEL [Y3C],2.38
2,SDAISEFRFAPNHTKELEDKVIEL [Y3A],2.76
3,SDIISEFRFAPNHTKELEDKVIEL [Y3I],1.86
4,SDGISEFRFAPNHTKELEDKVIEL [Y3G],2.94
5,SCYISEFRFAPNHTKELEDKVIEL [D2C],2.46
6,SVYISEFRFAPNHTKELEDKVIEL [D2V],2.02
7,SMYISEFRFAPNHTKELEDKVIEL [D2M],2.25
8,SLYISEFRFAPNHTKELEDKVIEL [D2L],2.18
9,SIYISEFRFAPNHTKELEDKVIEL [D2I],1.9
10,SEYISEFRFAPNHTKELEDKVIEL [D2E],2.48
11,SQYISEFRFAPNHTKELEDKVIEL [D2Q],1.62
12,SWYISEFRFAPNHTKELEDKVIEL [D2W],1.89
13,SNYISEFRFAPNHTKELEDKVIEL [D2N],1.88
14,SYYISEFRFAPNHTKELEDKVIEL [D2Y],1.75
15,SFYISEFRFAPNHTKELEDKVIEL [D2F],2.02
16,SRYISEFRFAPNHTKELEDKVIEL [D2R],2.02
17,SHYISEFRFAPNHTKELEDKVIEL [D2H],1.85
18,SAYISEFRFAPNHTKELEDKVIEL [D2A],2.21
19,STYISEFRFAPNHTKELEDKVIEL [D2T],1.95
20,SKYISEFRFAPNHTKELEDKVIEL [D2K],2.45
21,SGYISEFRFAPNHTKELEDKVIEL [D2G],1.45
22,SSYISEFRFAPNHTKELEDKVIEL [D2S],2.11
23,SPYISEFRFAPNHTKELEDKVIEL [D2P],2.29

# Variants of: B2
# Test: as above
# Conditions: c terminus: a fixed tail appended
row,Variant,protein stability index
1,FSDPSQSDPETKDFWLNMGALTEA [A19G],2.01
2,FSDPSQSDPETKDFWLNMYALTEA [A19Y],2.7
3,FSDPSQSDPETKDFWLNMEALTEA [A19E],2.74
4,FSDPSQSDPETKDFWLNMNALTEA [A19N],2.41
5,FSDPSQSDPETKDFWLNMSALTEA [A19S],2.29
6,FSDPSQSDPETKDFWLNMTALTEA [A19T],1.79
7,FSDPSQSDPETKDFWLNMHALTEA [A19H],1.96
8,FSDPSQSDPETKDFWLNMLALTEA [A19L],2.44
9,FSDPSQSDPETKDFWLNMPALTEA [A19P],2.7
10,FSDPSQSDPETKDFWLNMVALTEA [A19V],2.25
11,FSDPSQSDPETKDFWLNMKALTEA [A19K],2.78
12,FSDPSQSDPETKDFWLNMMALTEA [A19M],2.54
13,FSDPSQSDPETKDFWLNMIALTEA [A19I],2.47
14,FSDPSQSDPETKDFWLNMCALTEA [A19C],2.23
15,FSDPSQSDPETKDFWLNMWALTEA [A19W],2.09
16,FSDPSQSDPETKDFWLNMQALTEA [A19Q],3.02
17,FSDPSQSDPETKDFWLNMRALTEA [A19R],3.21
18,FSDPSQSDPETKDFWLNMDALTEA [A19D],2.53
19,FSDPSQSDPETKDFWLNMFALTEA [A19F],2.18
20,FSDPSQSDPETKDFWLNMAAMTEA [L21M],2.77
21,FSDPSQSDPETKDFWLNMAAHTEA [L21H],2.55
22,FSDPSQSDPETKDFWLNMAASTEA [L21S],2.62
23,FSDPSQSDPETKDFWLNMAAGTEA [L21G],2.52
24,FSDPSQSDPETKDFWLNMAAITEA [L21I],3

row,Variant,protein stability index
1,FSDPSQSDPETKDFWLNMAAQTEA [L21Q],3.3
2,FSDPSQSDPETKDFWLNMAACTEA [L21C],2.4
3,FSDPSQSDPETKDFWLNMAANTEA [L21N],2.88
4,FSDPSQSDPETKDFWLNMAADTEA [L21D],3.27
5,FSDPSQSDPETKDFWLNMAARTEA [L21R],2.95
6,FSDPSQSDPETKDFWLNMAAFTEA [L21F],2.1
7,FSDPSQSDPETKDFWLNMAAATEA [L21A],2.63
8,FSDPSQSDPETKDFWLNMAAKTEA [L21K],2.95
9,FSDPSQSDPETKDFWLNMAAPTEA [L21P],2.32
10,FSDPSQSDPETKDFWLNMAAWTEA [L21W],1.73
11,FSDPSQSDPETKDFWLNMAAETEA [L21E],3.9
12,FSDPSQSDPETKDFWLNMAAYTEA [L21Y],2.38
13,FSDPSQSDPETKDFWLNMAAVTEA [L21V],2.58
14,FSDPSQSDPETKDFWLNMAATTEA [L21T],2.75
15,FSDPSQSDPETKDFWLNMAALSEA [T22S],2.34
16,FSDPSQSDPETKDFWLNMAALDEA [T22D],3.04
17,FSDPSQSDPETKDFWLNMAALGEA [T22G],2.53
18,FSDPSQSDPETKDFWLNMAALYEA [T22Y],2.82
19,FSDPSQSDPETKDFWLNMAALQEA [T22Q],2.9
20,FSDPSQSDPETKDFWLNMAALWEA [T22W],3.27
21,FSDPSQSDPETKDFWLNMAALEEA [T22E],3.66
22,FSDPSQSDPETKDFWLNMAALKEA [T22K],2.61
23,FSDPSQSDPETKDFWLNMAALREA [T22R],2.46
24,FSDPSQSDPETKDFWLNMAALVEA [T22V],3.44
